Results published in US20240010750A1 (Bayer, published 2024).

Assays:
[1] = target: human Plasmin (human, UniProt P00747 97-580; P00747 581-810, limits assumed); assay: cell-based or functional assay
[2] = target: T1, A2AP peptides with the consensus motif SRMSLSS (human); assay: PEPperCHIP peptide microarray, antibody at 1 µg/ml
T1 construct: Consensus motif shared by the reacting peptides of the PEPperCHIP arrays (linear 15-mers; cyclic 7-, 10- and 13-mers closed by a thioether)
T1 peptide: SRMSLSS
Description: Antibodies were incubated on the Microarray in concentrations of 1 μg/ml, 10 μg/ml and 100 μg/ml in incubation buffer. Incubation time was 16 h at 4° C. and shaking at 140 rpm.
As secondary antibody the goat anti-human IgG (Fc) DyLight680 was used at a dilution of 1:5000. This detection antibody was incubated on the Microarray at 45 min staining in incubation buffer at room temperature.
Microarray image analysis was done with PepSlide® Analyzer. A software algorithm was used to break down fluorescence intensities of each spot into raw, foreground and background signal, and calculated averaged median foreground intensities and spot-to-spot deviations of spot duplicates. Based on averaged median foreground intensities, an intensity map was generated and interactions in the peptide map highlighted by an intensity color code with red for high and white for low spot intensities. Averaged spot intensities of the assays were plotted with the antibody samples against the antigen sequence from the N- to the C-terminus to visualize overall spot intensities and signal-to-noise ratios. The intensity plots were correlated with peptide and intensity maps as well as with visual inspection of the microarray scans to identify the epitopes of the tested antibodies.

[3] = target: T2, rabbit alpha2-Antiplasmin (rabbit (Oryctolagus cuniculus)); assay: ELISA, coated antigen, 2nd exp.
T2 construct: Made in house in HEK293 cells, purified by Ni-IMAC and SEC (a His tag is implied but not described); also called rabbit A2AP; Oryctolagus cuniculus A2AP
T2 chain: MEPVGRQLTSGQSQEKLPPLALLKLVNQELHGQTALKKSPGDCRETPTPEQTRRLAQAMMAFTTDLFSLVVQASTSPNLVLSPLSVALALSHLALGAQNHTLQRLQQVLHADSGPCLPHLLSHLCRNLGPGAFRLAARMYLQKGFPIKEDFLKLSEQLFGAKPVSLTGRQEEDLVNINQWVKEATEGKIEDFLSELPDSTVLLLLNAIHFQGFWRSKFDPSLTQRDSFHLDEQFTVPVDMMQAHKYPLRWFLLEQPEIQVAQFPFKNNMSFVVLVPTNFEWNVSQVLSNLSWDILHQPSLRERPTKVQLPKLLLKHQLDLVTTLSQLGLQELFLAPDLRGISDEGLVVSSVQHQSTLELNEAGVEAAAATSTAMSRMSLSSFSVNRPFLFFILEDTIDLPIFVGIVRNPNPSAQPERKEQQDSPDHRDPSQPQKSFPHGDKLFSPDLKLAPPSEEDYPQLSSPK
Description: (§1) A standard ELISA format was used for analyzing the binding affinity of Fabs of this invention to human and rabbit alpha-2-Antiplasmin, respectively. Antigens were coated to black 384 well Maxisorp microtiter plates (Nunc; catalogue number 460518), diluted to a concentration of 1 μg/ml in 1× Coating Buffer (Candor Bioscience; catalogue number 121125). Plates were incubated overnight at 4° C. After overnight incubation, plates were washed 2× with 50 μl/well using PBS+0.05% Tween 20. Following this, 50 μl/well of blocking buffer (Smart Block; Candor Bioscience; catalogue number 113500) was added and the plates were incubated for 1 hour at room temperature. Afterwards, plates were washed for 3× using […] PBS+0.05% Tween 20 buffer. Fabs of this invention were added at different concentrations in a final volume of 30 μl/well. Plates were incubated for 1 hour at room temperature. Following this incubation step, plates were washed for 3× using 50 μl/well of a PBS+0.05% Tween 20 buffer. For the detection of bound Fabs and full-length antibodies, the anti-Human Lambda Light Chains (Bound and Free)—Peroxidase antibody (Sigma; catalogue number A5175) was diluted by the factor of 1:10.000 in 10% Blocking Buffer. […]
(§2) For measurement, the Infinite f500 reader (Tecan) was used. Measurement mode: Fluorescence; Top reading; Ex 535 nm; Em 590 nm. […]

[4] = target: T3, human alpha2-Antiplasmin (human, UniProt P08697 40-491); assay: ELISA, coated antigen, 2nd exp.
T3 construct: Bought (antibodies online, ABIN2544306); also called human A2AP; a2AP
T3 sequence: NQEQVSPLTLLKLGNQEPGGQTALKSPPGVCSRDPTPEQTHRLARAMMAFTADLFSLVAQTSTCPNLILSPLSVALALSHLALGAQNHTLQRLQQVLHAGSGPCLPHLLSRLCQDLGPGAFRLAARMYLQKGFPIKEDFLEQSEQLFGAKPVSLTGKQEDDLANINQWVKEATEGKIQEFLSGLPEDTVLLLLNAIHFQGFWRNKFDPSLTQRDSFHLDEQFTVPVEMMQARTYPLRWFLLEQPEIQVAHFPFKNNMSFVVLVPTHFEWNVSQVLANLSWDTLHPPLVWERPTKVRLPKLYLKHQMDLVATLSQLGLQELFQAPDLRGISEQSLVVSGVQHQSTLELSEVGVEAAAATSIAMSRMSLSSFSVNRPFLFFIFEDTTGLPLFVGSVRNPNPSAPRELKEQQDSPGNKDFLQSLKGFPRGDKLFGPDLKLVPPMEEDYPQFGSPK
Description: as §1, §2

Chain of human Plasmin (P00747 97-580 limits assumed, chain 1 of 2): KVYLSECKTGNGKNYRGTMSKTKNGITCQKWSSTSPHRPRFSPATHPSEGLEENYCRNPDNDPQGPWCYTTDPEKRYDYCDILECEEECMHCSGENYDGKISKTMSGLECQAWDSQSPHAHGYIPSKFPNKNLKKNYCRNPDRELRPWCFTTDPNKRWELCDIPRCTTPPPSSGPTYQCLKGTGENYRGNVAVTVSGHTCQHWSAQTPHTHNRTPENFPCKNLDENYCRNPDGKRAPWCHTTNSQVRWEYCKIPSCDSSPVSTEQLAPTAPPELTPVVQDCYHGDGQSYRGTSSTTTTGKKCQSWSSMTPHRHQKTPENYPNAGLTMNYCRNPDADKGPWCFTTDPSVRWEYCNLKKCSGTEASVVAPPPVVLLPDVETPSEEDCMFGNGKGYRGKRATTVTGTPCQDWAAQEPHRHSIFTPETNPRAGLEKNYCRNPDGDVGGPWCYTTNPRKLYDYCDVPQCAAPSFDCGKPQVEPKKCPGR
Chain of human Plasmin (P00747 581-810 limits assumed, chain 2 of 2): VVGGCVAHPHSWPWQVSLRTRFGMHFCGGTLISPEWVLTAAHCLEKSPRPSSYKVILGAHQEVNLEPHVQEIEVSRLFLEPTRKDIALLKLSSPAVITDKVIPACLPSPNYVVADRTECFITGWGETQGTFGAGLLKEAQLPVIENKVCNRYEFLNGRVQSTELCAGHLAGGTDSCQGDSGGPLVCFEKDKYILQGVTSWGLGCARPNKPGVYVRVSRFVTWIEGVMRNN

B1: TPP-12387 hIgG1 (antibody, V domains shown)
VH: EVQLLESGGGLVQPGGSLRLSCAASGFTFDDYAMSWVRQAPGKGLEWVSAIGTGGGTYYADSVKGRFTISRDNSKNTLYLQMNSLRAEDTAVYYCAREYYDSSGYYHLDYWGQGTLVTVSS
VL: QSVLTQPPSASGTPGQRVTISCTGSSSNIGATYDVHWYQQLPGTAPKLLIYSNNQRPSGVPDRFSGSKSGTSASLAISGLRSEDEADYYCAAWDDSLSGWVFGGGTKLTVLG
notes: Fully human IgG1 lambda from the BioInvent n-CoDeR Fab lambda library; parental lead antibody
In the case of B1, the “IC50 [M], inhibition of plasmin proteolytic activity” value [1] is reported as over 1e-05 M, the “signal-to-noise-ratio at 1 µg/ml” value [2] is reported as 659 and the EC50 [3] is reported as 6.07 nM. The EC50 [4] was 100 nM.
